Measurements reported in paper PMC6222199 (Journal of Bacteriology, 2018).

What was measured:
[1] = target: the molecule itself; assay: SEC-MALS; MiniDawn Treos MALS in line with a Superdex 200 Increase SEC column; without phosphoramidate
[2] = target: the molecule itself; assay: SEC-MALS; MiniDawn Treos MALS in line with a Superdex 200 Increase SEC column; with the phosphoryl donor phosphoramidate (50 uM protein with 50 mM phosphoramidate in 20 mM Tris pH 8, 50 mM NaCl, 10 mM MgCl2, 10 min, room temperature)

B1: RR_1586 (response regulator encoded by CDR20291_1586), wild type, unphosphorylated (natural protein, Clostridioides difficile R20291, UniProt A0A9R0BKD1 1-223, looked up)
chain: MKVLIVEDNKILLESVVEELSKHFETEKCEDGEEALYLVNQNIYDLVILDLMLPNINGFDILKKMRVNNIDTPVLILTAKETLDDKVEAFTIGANDYLTKPFYMEELVARVYAILRTNGKIKERNGLEFKSLYLDTLEKRVYIEKEEIKLQNKQFNLLEYFVLNKGSILLKEQIYDRIWGIDSDATIEIVEVYVSNLRKKLSKYGYDKYIKTKRKVGYIFDDK
notes: also called apo-RR_1586; wild-type RR_1586
stoichiometry N [1]: 2

B2: phosphorylated RR_1586 (wild type treated with phosphoramidate) (natural protein, Clostridioides difficile R20291, UniProt A0A9R0BKD1 1-223, looked up)
chain: MKVLIVEDNKILLESVVEELSKHFETEKCEDGEEALYLVNQNIYDLVILDLMLPNINGFDILKKMRVNNIDTPVLILTAKETLDDKVEAFTIGANDYLTKPFYMEELVARVYAILRTNGKIKERNGLEFKSLYLDTLEKRVYIEKEEIKLQNKQFNLLEYFVLNKGSILLKEQIYDRIWGIDSDATIEIVEVYVSNLRKKLSKYGYDKYIKTKRKVGYIFDDK
notes: also called phospho-RR_1586
stoichiometry N [2]: 4
